Experimental findings from patent US20210388110A1 (published 2021) are described below.

Changes are numbered by the printed parent chain. Like-named read-outs stand apart in the source and are kept apart here.

The target of test [1] is T1, soluble human GPC3 (human, UniProt P51654 25-563, limits assumed).
T1 construct: also called glypican 3
Nature of the test: SPR (Biacore), single-arm antibody, soluble human GPC3. For orientation: SPR reads the build-up and loss of mass on a sensor chip optically.

The target of test [2] is T1, soluble human GPC3. The test is described as above. This is another data set of the same source.

T1 sequence (P51654 other isoform, or with tags, fused parts or gaps limits assumed, form in doubt): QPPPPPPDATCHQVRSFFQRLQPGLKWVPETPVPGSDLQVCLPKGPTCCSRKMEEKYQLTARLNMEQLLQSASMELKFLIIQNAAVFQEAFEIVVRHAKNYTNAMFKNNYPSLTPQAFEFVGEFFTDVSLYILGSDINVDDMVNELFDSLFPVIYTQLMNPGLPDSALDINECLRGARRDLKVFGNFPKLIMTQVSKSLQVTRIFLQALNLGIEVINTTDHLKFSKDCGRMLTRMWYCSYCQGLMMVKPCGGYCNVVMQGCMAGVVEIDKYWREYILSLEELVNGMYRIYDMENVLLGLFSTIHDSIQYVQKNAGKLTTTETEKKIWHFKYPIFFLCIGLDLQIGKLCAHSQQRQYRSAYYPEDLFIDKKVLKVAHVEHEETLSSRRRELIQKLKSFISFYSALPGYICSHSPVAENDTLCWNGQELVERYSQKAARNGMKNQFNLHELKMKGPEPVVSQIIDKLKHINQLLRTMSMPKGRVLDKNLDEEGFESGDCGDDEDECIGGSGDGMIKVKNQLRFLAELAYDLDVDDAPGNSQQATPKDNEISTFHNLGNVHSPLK

B1: H0610-G1dh/none-Hi-Kn010G3/L0000-k0 (antibody, human IgG1, kappa)
heavy: not shown
chain: EPKSSDKTHTCPPCPAPELLGGPSVFLFPPKPKDTLMISRTPEVTCVVVDVSHEDPEVKFNWYVDGVEVHNAKTKPREEQYNSTYRVVSVLTVLHQDWLNGKEYKCKVSNKALPAPIEKTISKAKGQPREPQVCTLPPSRDELTKNQVSLWCLVKGFYPSDIAVEWESNGQPENNYKTTPPVLDSDGSFFLYSKLTVDKSRWQQGNVFSCSVMHEALHNRYTQKSLSLSP
light: DIVMTQSPLSLPVTPGEPASISCRSSQSLVHSNRNTYLHWYQQKPGQAPRLLIYKVSNRFSGVPDRFSGSGSGTDFTLKISRVEAEDVGVYYCGQGTQVPYTFGQGTKLEIKRTVAAPSVFIFPPSDEQLKSGTASVVCLLNNFYPREAKVQWKVDNALQSGNSQESVTEQDSKDSTYSLSSTLTLSKADYEKHKVYACEVTHQGLSSPVTKSFNRGEC
notes: single-arm antibody
As to B1, the affinity with soluble human GPC3 [1], expressed as Kd, was 4.16 nM.

B2: H0610-G1dh/none-Hi-Kn010G3/L0104-k0 (antibody, human IgG1, kappa)
heavy: not shown
chain: B1 chain
light: B1 light with N58F
notes: single-arm antibody
Regarding B2, in the test with soluble human GPC3 [2], the affinity, expressed as Kd, was 5.9 nM.

B3: H0610-G1dh/none-Hi-Kn010G3/L0147-k0 (antibody, human IgG1, kappa)
heavy: not shown
chain: B1 chain
light: B1 light with S61V
notes: single-arm antibody
Regarding B3, binding in the test with soluble human GPC3 [2] was put at a Kd of 4.38 nM.

B4: GCH054-G1dh/none-Hi-Kn010G3/L0011-k0 (antibody, human IgG1, kappa)
heavy: not shown
chain: B1 chain
light: B1 light with S28P
notes: single-arm antibody
As for B4, the Kd with soluble human GPC3 [1] and with soluble human GPC3 [2] was 5.25 nM in each case.

B5: H0610-G1dh/none-Hi-Kn010G3/TR01L005-k0 (antibody, human IgG1, kappa)
heavy: not shown
chain: B1 chain
light: B1 light with Q42L, A48S, R50Q, L109V, K112E
notes: single-arm antibody
Consider B5, for which binding in the test with soluble human GPC3 [2] was characterised by a dissociation constant (Kd) of 5.37 nM.

B6: H0610-G1dh/none-Hi-Kn010G3/L0069-k0 (antibody, human IgG1, kappa)
heavy: not shown
chain: B1 chain
light: B1 light with N35M
notes: single-arm antibody
Regarding B6, the dissociation constant Kd (usually the equilibrium constant for the complex coming apart) with soluble human GPC3 [2] was 5.32 nM.

B7: H0610-G1dh/none-Hi-Kn010G3/L0136-k0 (antibody, human IgG1, kappa)
heavy: not shown
chain: B1 chain
light: B1 light with S61F
notes: single-arm antibody
Consider B7, for which binding in the test with soluble human GPC3 [2] was put at a Kd of 5.04 nM.

B8: H0610-G1dh/none-Hi-Kn010G3/L0144-k0 (antibody, human IgG1, kappa)
heavy: not shown
chain: B1 chain
light: B1 light with S61Q
notes: single-arm antibody
Take B8: in the test with soluble human GPC3 [2], the Kd amounted to 4.84 nM.

B9: H0610-G1dh/none-Hi-Kn010G3/L0089-k0 (antibody, human IgG1, kappa)
heavy: not shown
chain: B1 chain
light: B1 light with H39L
notes: single-arm antibody
In the case of B9, in the test with soluble human GPC3 [2], the Kd was 5.24 nM.

B10: H0610-G1dh/none-Hi-Kn010G3/L0139-k0 (antibody, human IgG1, kappa)
heavy: not shown
chain: B1 chain
light: B1 light with S61I
notes: single-arm antibody
On to B10, for which, in the test with soluble human GPC3 [2], the Kd stood at 4.78 nM.

B11: H0610-G1dh/none-Hi-kn010G3/L0137-k0 (antibody, human IgG1, kappa)
heavy: not shown
chain: B1 chain
light: B1 light with S61G
notes: single-arm antibody
In the test with soluble human GPC3 [2], B11 gave a Kd of 5.87 nM.

B12: H0610-G1dh/none-Hi-Kn010G3/TR01L003-k0 (antibody, human IgG1, kappa)
heavy: not shown
chain: B1 chain
light: B1 light with L109V, K112E
notes: single-arm antibody
For the molecule B12, binding in the test with soluble human GPC3 [2] was put at a Kd of 5.08 nM.

B13: H0610-G1dh/none-Hi-Kn010G3/L0109-k0 (antibody, human IgG1, kappa)
heavy: not shown
chain: B1 chain
light: B1 light with N58M
notes: single-arm antibody
For the molecule B13, in the test with soluble human GPC3 [2], binding was put at a Kd of 5.7 nM.

B14: GCH094-G1dh/none-Hi-Kn010G3/L0011-k0 (antibody, human IgG1, kappa)
heavy: not shown
chain: B1 chain
light: B1 light with S28P
notes: single-arm antibody
Regarding B14, in the test with soluble human GPC3 [1], binding was characterised by a dissociation constant (Kd) of 4.54 nM.

B15: H0610-G1dh/none-Hi-Kn010G3/L0091-k0 (antibody, human IgG1, kappa)
heavy: not shown
chain: B1 chain
light: B1 light with H39N
notes: single-arm antibody
The molecule B15 returned a dissociation constant Kd with soluble human GPC3 [2] of 5.43 nM.

B16: H0610-G1dh/none-Hi-Kn010G3/L0113-k0 (antibody, human IgG1, kappa)
heavy: not shown
chain: B1 chain
light: B1 light with N58T
notes: single-arm antibody
B16 came in with a Kd with soluble human GPC3 [2] of 4.82 nM.

B17: GCH065-G1dh/none-Hi-Kn010G3/L0011-k0 (antibody, human IgG1, kappa)
heavy: not shown
chain: B1 chain
light: B1 light with S28P
notes: single-arm antibody
With B17, binding with soluble human GPC3 [1] was put at a Kd of 0.884 nM.

B18: H0610-G1dh/none-Hi-Kn010G3/L0232-k0 (antibody, human IgG1, kappa)
heavy: not shown
chain: B1 chain
light: B1 light with Q27E
notes: single-arm antibody
B18 had a Kd with soluble human GPC3 [2] of 5.38 nM.

B19: H0610-G1dh/none-Hi-Kn010G3/L0180-k0 (antibody, human IgG1, kappa)
heavy: not shown
chain: B1 chain
light: B1 light with V99N
notes: single-arm antibody
In the case of B19, the Kd with soluble human GPC3 [2] is 4.48 nM.

B20: H0610-G1dh/none-Hi-Kn010G3/L0126-k0 (antibody, human IgG1, kappa)
heavy: not shown
chain: B1 chain
light: B1 light with F60N
notes: single-arm antibody
In the test with soluble human GPC3 [2], B20 came in with a Kd of 5.62 nM.

B21: H0610-G1dh/none-Hi-Kn010G3/L0123-k0 (antibody, human IgG1, kappa)
heavy: not shown
chain: B1 chain
light: B1 light with F60K
notes: single-arm antibody
B21: binding with soluble human GPC3 [2] was characterised by a dissociation constant (Kd) of 5.08 nM.

B22: H0610-G1dh/none-Hi-Kn010G3/L0117-k0 (antibody, human IgG1, kappa)
heavy: not shown
chain: B1 chain
light: B1 light with F60A
notes: single-arm antibody
As to B22, the Kd with soluble human GPC3 [2] worked out at 4.92 nM.

B23: H0610-G1dh/none-Hi-Kn010G3/L0138-k0 (antibody, human IgG1, kappa)
heavy: not shown
chain: B1 chain
light: B1 light with S61H
notes: single-arm antibody
Consider B23, for which binding with soluble human GPC3 [2] was put at a Kd of 5.24 nM.

B24: H0610-G1dh/none-Hi-Kn010G3/L0132-k0 (antibody, human IgG1, kappa)
heavy: not shown
chain: B1 chain
light: B1 light with F60V
notes: single-arm antibody
On to B24, for which binding in the test with soluble human GPC3 [2] was put at a Kd of 5.65 nM.

B25: H0610-G1dh/none-Hi-Kn010G3/L0187-k0 (antibody, human IgG1, kappa)
heavy: not shown
chain: B1 chain
light: B1 light with V99Y
notes: single-arm antibody
Consider B25, for which the affinity in the test with soluble human GPC3 [2], expressed as Kd, was 4.92 nM.

B26: H0610-G1dh/none-Hi-Kn010G3/L0129-k0 (antibody, human IgG1, kappa)
heavy: not shown
chain: B1 chain
light: B1 light with F60R
notes: single-arm antibody
On to B26, for which the equilibrium dissociation constant (Kd) with soluble human GPC3 [2] was 5.28 nM.

B27: H0610-G1dh/none-Hi-kn010G3/L0106-k0 (antibody, human IgG1, kappa)
heavy: not shown
chain: B1 chain
light: B1 light with N58H
notes: single-arm antibody
As to B27, the affinity with soluble human GPC3 [2], expressed as Kd, was 5.66 nM.
